How the values were obtained:
Assay in all cases: pull-down
[1] = molecular target: recombinant APE1 C99S (UniProt P27695 1-318, C99S)
[2] = molecular target: recombinant APE1 C65S+C99S (UniProt P27695 1-318, C65S | C99S)
[3] = molecular target: recombinant APE1 C65S (UniProt P27695 1-318, C65S)
Sequence of recombinant APE1 C65S (P27695 whole entry C65S): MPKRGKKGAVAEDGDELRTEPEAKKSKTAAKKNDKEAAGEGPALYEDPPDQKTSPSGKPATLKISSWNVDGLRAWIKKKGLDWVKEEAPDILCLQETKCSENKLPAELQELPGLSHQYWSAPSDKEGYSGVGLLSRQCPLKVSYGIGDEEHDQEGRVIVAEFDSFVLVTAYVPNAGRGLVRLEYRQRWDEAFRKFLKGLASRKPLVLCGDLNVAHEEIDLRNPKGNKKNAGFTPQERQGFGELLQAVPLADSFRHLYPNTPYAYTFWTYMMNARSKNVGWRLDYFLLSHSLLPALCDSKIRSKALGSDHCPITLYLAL

Sequence of recombinant APE1 C65S+C99S (P27695 whole entry C65S/C99S): as the sequence (P27695 whole entry C65S) above, with C99S counted along it
Sequence of recombinant APE1 C99S (P27695 whole entry C99S): as the sequence (P27695 whole entry C65S) above, with S65C, C99S counted along it

binding result [1]: binds
binding result [2]: binds
binding result [3]: binds
B1: recombinant GST-Mia40 wild type (natural protein, human, UniProt Q8N4Q1 1-142, looked up)
chain: MSYCRQEGKDRIIFVTKEDHETPSSAELVADDPNDPYEEHGLILPNGNINWNCPCLGGMASGPCGEQFKSAFSCFHYSTEEIKGSDCVDQFRAMQECMQKYPDLYPQEDEDEEEEREKKPAEQAEETAPIEATATKEEEGSS

From paper PMC4477663 (Nucleic Acids Research, 2015)
